Consider four molecules from paper PMC5016687, “The Effectors and Sensory Sites of Formaldehyde-responsive Regulator FrmR and Metal-sensing Variant” (The Journal of Biological Chemistry, 2016).

Series [1] concerns the target T1, FrmR (Salmonella enterica, UniProt A0A0H3NLH8).
T1 construct: gene SL1344_1558
Nature of the series: biochemical.

The target of series [2] is T2, FrmR (Salmonella enterica, UniProt A0A0H3NLH8, C35A).
T2 construct: gene SL1344_1558
In words: biochemical.

Series [3] has as its target RcnR (Salmonella enterica, UniProt Q7CPV3). Nature of the series: biochemical.
Series [4] has as its target T3, FrmR (Salmonella enterica, UniProt A0A0H3NLH8, P2S).
T3 construct: gene SL1344_1558
Nature of the series: biochemical.

The target in series [5] is FrmR^E64H (Salmonella enterica serovar Typhimurium FrmR with Glu64 to His) (Salmonella enterica serovar Typhimurium strain SL1344). Nature of the series: crystal structure; FrmR E64H 0.5 mM in 400 mM NaCl, 1 mM EDTA, 1 mM DTT, 10 mM HEPES pH 7.0; crystals in 20 mM NaCl, 23% (w/v) PEG 4000, 10 mM BisTris pH 6.5, hanging drop vapor diffusion at 20 °C; one homotetramer in the asymmetric unit; 2.19 Å.

Series [6] has as its target T4, RcnR (Salmonella enterica serovar Typhimurium …, UniProt Q7CPV3 1-90).
T4 sequence: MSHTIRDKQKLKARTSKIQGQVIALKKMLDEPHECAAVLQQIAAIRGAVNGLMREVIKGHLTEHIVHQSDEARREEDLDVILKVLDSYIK
Nature of the series: fluorescence anisotropy; 5 mM EDTA, apo; 10 mM HEPES pH 7.0, 60 mM NaCl, 240 mM KCl, 5 mM EDTA (or 5 uM NiCl2/CoCl2), 25 C, 10 nM DNA; anaerobic except FrmRC35A; Kd per tetramer (two nondissociable tet). The settings on record: protein: recombinant; chain copies: 8; label: 5'-HEX on strand 1; blunt.

In another series the target is RcnRS2P (Salmonella enterica serovar Typhimurium …, UniProt Q7CPV3 1-90, S2P). Described as above. The note with it: protein: recombinant; chain copies: 8; label: 5'-HEX on strand 1; blunt.
Another series has as its target FrmRP2S (Salmonella enterica serovar Typhimurium …, UniProt A0A0H3NLH8 1-91, P2S). The series is described as above. The note with it: protein: recombinant; chain copies: 8.
Another series concerns the target FrmRE64H (Salmonella enterica serovar Typhimurium …, UniProt A0A0H3NLH8 2-91, E64H). The description is as above. The settings on record: protein: recombinant; chain copies: 8.
Series [7] deals with FrmR (Salmonella enterica serovar Typhimurium …, UniProt A0A0H3NLH8 2-91). In words: fluorescence anisotropy; 800 uM GSH, 5 mM EDTA; 10 mM HEPES pH 7.0, 60 mM NaCl, 240 mM KCl, 5 mM EDTA (or 5 uM NiCl2/CoCl2), 25 C, 10 nM DNA; anaerobic except FrmRC35A; Kd per tetramer (two nondissociable tet). The note with it: protein: recombinant; chain copies: 8.

A word on the Kd: it is a measure of binding affinity in units of concentration. In the case of `C=O` [formaldehyde], the Kd at FrmR [1] was 10000 to 20000 nM; on FrmR [2], more than 100000 nM; on RcnR [3], more than 100000 nM; at FrmR [4], more than 50000 nM.
One may read the stoichiometry N as a count of units in the complex or per binding partner. “FrmR^E64H (Salmonella enterica serovar Typhimurium FrmR with Glu64 to His) (natural protein)” registered a stoichiometry N in series [5] of 4.

B1: rcnRAPro (dsDNA)
DNA 1: TACTCCCCCCCAGTATAGAATACTACCCCCCAGTA
DNA 2: TACTGGGGGGTAGTATTCTATACTGGGGGGGAGTA
As to B1, the Kd in the series with RcnR [6] was 150 nM; with RcnRS2P, 160 nM.

B2: frmRAPro (dsDNA)
DNA 1: TTCTGATAGTATACCCCCCTATAGTATATGGAG
DNA 2: CTCCATATACTATAGGGGGGTATACTATCAGAA
Turning to B2, the Kd in the series with FrmRP2S was 150 nM. In the series with FrmRE64H, the binding result is listed as “binds”. Further, the binding signal with FrmR [7] is approximately 2.5 fold tighter Kd vs apo.
